Measured values as given in the nanobody polyreactivity screen of Harvey et al. (2022).

Experiment: yeast display, Sf9 membrane polyspecificity reagent, FACS + sequencing; frameworks hold sequencing errors
Method in brief: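 Synthetic nanobody libraries on Saccharomyces cerevisiae BJ5465 were galactose-induced for 36–48 hours, stained 1 hour at 4 °C with 10% biotinylated, detergent-solubilized Sf9 membrane reagent and enriched on streptavidin microbeads. FACS then separated cells into low and high (top ~1%) gates by anti-HA (expression) and streptavidin (reagent binding) fluorescence. Genes were colony-PCR amplified, MiSeq 2 × 250 sequenced and CDR-length filtered. A clone's polyreactivity label is that of its gate of origin.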

Sequence	polyreactivity (PSR sort gate)
QVQLVESGGGLVQAGGSLRLSCAASGSTFKYNAMGWSRQAPGKERELVASISRSGGSTYYADSVKGRFTISRDNAKNTVYLQMNSQKPEDTAVYYCNVRRFVHYEYWGQGTQVTVSS	high polyreactivity
QVQLVESGGGLVQAGGSLRLSCAASGSIFEYYTMGWYRQAPGKERELVAGISWSGGSTYYADSVKGRFTISRDNAKNTVYLQMNSLKPEDTAVYYCAARSRSGRQEYYYWGQGTQVTVSS	high polyreactivity
QDQLVESGGGLVQAGGSLRLSCAASGRNIGGYAMGWNRLAPGKEWELVAAISRSGGSTYYADSVKGRFTISRDNAKNTVYLQMNSLKPEDTAVYYCAAETVSSFYTLWTGKYDYWGQGTQVTVSS	high polyreactivity
QVQLVESGGGLVKAGGSLRLSCAASGFTFPQYAMGWYRQAPGKERELVAAISKRSVGTRYADSVKGRFTISRDNAKNTLYLQMNSLKPEDTAVYYCNKYGQVPGYFSLDYWGQGTQVTVSS	high polyreactivity
QVQLVESGGGLVQAGGSLRLSCAASGLIFSVYGMGWYRQAPGKERELVAAISSRGGSTYYADSVKGRFTISRDLAKNTVYLQMNSLKQEDTAVYYCAARSNYRMDYWGQGTQVTVSS	high polyreactivity
QVQLVESGGGLVQAGGSLRLSCAASGLTFYQYTMGWYRQAPGKERELVAAISRRGGSTYYADSVKGRFTISRDNAKNTVYLQMNSLKPEDTAVYYCAARALRYSSDFDYWGQGTQVTVSS	high polyreactivity
QVQLVESGGGLVQAGGSLRLSCAASGIIFGRYPMGWYRQAPGKERELVAAITSSGITYYADSVKGRFTISRDNAKNTVYLQMNSLKPEDTAVYYCNADYSIPGYYWPYDYWGQGTQVTVSS	low polyreactivity
QVQLVESGGGLVQAGGSLRLSCAASGSTFYRNAMGWYRPAPGKERELVAAISQRGGRTYYADSVKGRFTISRDNAKNTVYLQMNSLKPEDTAVYYCNKFRGINHLYDMNYWGQGTQVTVSS	high polyreactivity
QVHLVESGGCLLQAGGSLRLSCAASGSIFIINAMGWYRQAPGKERELVAAINNGVNTYYADSVKVRFTISRDNAKNTVYLQKNSLKPEDTAVYYCAADPYFYYYGYDYWGQGTQVTVSS	low polyreactivity
QVQLVESGGGLVQAGGSLRLSCAASGSIIGGYAMGWYRQAPGKERELVAAITRSGGRTYYADSVKGRFTISRDNAKNTVYLQMNSLKPEDTAVYYCNADRRRRFGYWGQGTQVTVSS	high polyreactivity
QVQLVESGGGLVQAGGSLRLSCAASGRTFYRYAMGWYRQAPGKERELVAAITASGGSTYYADSVKGRFTISRDNAKNTVYLQMNSLKPEDTAVYYCAKGGKSRYSTWHGDYWGQGTQVTVSS	high polyreactivity
QVHLVESGGGLVQAGGSLRLSSAASGFIFGKNDMGWYRQAPGKERELVAAITIGGSTNYADSVKGRFTISRDNAKNTVYLQLNSLKPEDTAVYYCAADSSSLYNYWGQGTQVTVSS	low polyreactivity
QGQLVESGGGLVQAGGILRLRCAACGSTILVYAMGWYRHAPGQERELVAFIDNGGDTYYADSVKGRFTISRDNAKNTVYLQMYSLKPEDTEVYYCADDLSYLGYWEYDYWGQGTQVTVSS	low polyreactivity
QVQLVESGGGVVQAGGSLRLSCAASGLIFSPYAMGWYRPAPGKERELVAVITRSGGRTYYADSVKGRFTISRDNAKNTVYLQMNSLKPEDTAVYYCAATPKSWSSSTRDYWGQGTQVTVSS	high polyreactivity
QDQLVESGGGLDQAGGSLRLSCAASGNTFWPYAMGWYRQAPGKESEFVAAITFRGGSTYYADSVKGRFTISRDNAKNTVYLQMNSLKPEDTAVYYCNAERGVWSGYFGYDYWGQGTQVTVSS	low polyreactivity
QVQLVESGGGLVQAGGSLRLSCAASGRIFVLYAMGWYRHSPGKERELVAAINWSGGSTFYADSVKGRFTISRDNAKNTVYLQMNSLKPEDTAVYYCNARGLRVKYDYWGQGTQVTVSS	high polyreactivity
QVQLVESGGGLVQAGGSLRLSCAASGFIFRYYAMGWYRQAPGKERELVAAITNSGVSTYYADSVKGRFTISRDNAKNTVYLQMNSLKPEDTAVYYCAATYRTRTSQYDYWGQGTQVTVSS	high polyreactivity
QVQLVESGGGLVQAGGSLRLSCAASGFTFRKNVMGWYRQATGKERELVAVISSSGGSTYYADSVKGRFTISRDNAKNTVYLPMNRLKPEVTAVYYCNAGRYGSNLEYWGQGTQLTVSS	low polyreactivity
QVQLVESGGGLVQAGGSLRLSCAASGFIFWYYAMGWSRQAPGKERELVAAISYGGGSTYYADSVKGRFTISRDNAKNTVYLQMNSLKPEDTAVYYCAAAPRWKASRLYYWGQGTQVTVSS	high polyreactivity
QVQLVESGGGLVQAGGSLRLSCAASGSIFLRYAMGWYRQAPGKESELVARISWSGGSTYYADSVKGRFTISRDNAKNTVYLQMNSLKPEDTAVYYCAAGFRAYGELDYWGQGTQVTVSS	low polyreactivity
QVELVESGGGLVQAGGSLSLSCAASGFTFVGNTMGWYRQAPGKEREWGAAIRGRDGRTYYADSVKGRFTISRDKAKNTVYLQMNSLKPEETAVYYCNVDVKYSVRSEIDYWGQRTQVTVSS	low polyreactivity
QVQLVESGGGLVQAGGSLRLSCAASGSTLAPYVKGWYRQAPGKERELVAVISTRTGRTYYADSVKGRFTISRDNAKNTVYLQMNSLKPEDTAVYYCAAPVYPYQVQTYDYWGQGTQVTVSS	high polyreactivity

Sequence	polyreactivity (PSR sort gate)
QVQLVESGGGLVQAGGSLRLSCAASGIIFTNYAMGWYRQAPGKERELVAAISSSSGTTYYADSVKGRFTISRDNAKNTDYLQMNSLKPEDTALYYCNAGRSWRRTHYDYWVQGTQVTVSS	high polyreactivity
QVQLVESCGGLVQAGGSLRLSCAASGSTFLVNAMGWYRPAPGKERELVAASSRGGGSTYYADSVKGRFTISRDKAKNTVYLQMNSLKPEDTAVYYCNARKWTIYGAHYYWGQGTQVTVSS	high polyreactivity
QVQLVESGGRLVQAGGSLRLSCAASGSIFRFNTMGWYRQAPGKERELVAVIRYRSGSTYYADTVKGRFTISRDNAKYTVYLQMNSLKPEDTAVYYCAAKRRSTYDYWGQGTQVTVSS	high polyreactivity
QVQLVESGGGLVQAGGSLRLSCAASGSTFYFNAMGGYRQSPGKERELVAVIDGSGGFTYYADSVKGRFTISRDNAKNTVYLQMNSLKQEVTAVYDCNADLVYNTFLYSGGDEYDYWGQGTQVTVSS	high polyreactivity
QVQLVESGGGLVQAGGSLRLSCAASGRIFVSNVRGWYRQAPGKERELVAAIDKSGGSTYYADSVKGRFTISRDNAKNSVYLQMNSLKPEDTAVYYCAATSYRQPYRYYYWGQGTQVTVSS	high polyreactivity
QVQLVESGGGLVQAGGSLRLSCAASGRIFGRYAMGWYRQAPGKERELVAAISSGTSTNYADSVKGRFTISRDNAKNTVYLQMNSLKPEDTAVYYCAVVLYRHWWYDYWGQGTQVTVSS	high polyreactivity
QVQLVESGGGLVQAGGSLSLSCAASGSTFAYYAMGGYRQAPGKERELVAGITWTGGSTYYADSVKGRFTISRDNAKNTVYLQMNSLKPEDTAVYYCAVTYPYGYEYDHWGQGTQVTVSS	low polyreactivity
QVQLVESGGGLVQAGGSLRLSCAASGRTFGYYVMGWYRQAPGKERELVAAITYTGGSTYYADSVKGRFTISRDNAKNTVYLQMNSLKPEDTAVYYCATSTYKPTYGYDYWGKGTQVTVSS	low polyreactivity
QVQLVESGGGLVQAGGSLRLSCAASGRTFAYYAMGWYRQAPGKERELVAAISTSGTRTYYADSVKGRFTISRDNAKNTVYLQMNSLKPEDTAVYYCAARYRYQYEFDYWGQGTQVSVSS	high polyreactivity
QVQLVESGGGLVQAGGSLRLSCAASGIIFSGYARGWSRQAPGKERELVAVISSSGGGTYYADSVKGRFTISRDNAKNTVYLHMNSLKPEDTAVYYCAARGREAIHGYWGQGTQVTVSS	high polyreactivity
QVQLVESWGGLVQAGGSLRLSCAASGSTFDRYAMGWYRQAPGKERELVAAISGSAGRTYYADSVKGRFTISRENAKNTVYLQMNTLKPEDTAVYFCAAVQIVSGNYDYYWGQGTQVTVSS	low polyreactivity
QVQLVESGGGLVQAGGILRLSCAASGGIFSVYAMGWYRQAPGKERELVASITVSGGSTSYADSVKGRFTISRDNAKNTVYLQMNCLKPEDTAVYYCAADLLRYFGYYDYDSWGQGTQVTVSS	low polyreactivity
QVQLVESGGGLVQAGGSLRLSCAASGSTFSGNAMGWYRQAPGKERELVAAISSGGDTYYADSVKGRFTNSRDNAKNTVYLQMNSLKPEDTAVYYCNARSTWRHRRDQVDFDYWGQGTQVTVSS	low polyreactivity
QVQLVESGGGLVQAGGSLRLSCAASGRIFVRYAMGWYRQAPGKERELVAAISWSAGSTYYADSVKGRFTISRDNAKNTVYLQMNSLKPEDTAVYYCAAEYGNYETGHYGIYDYWGQGTQVTVSS	low polyreactivity
QVQLVESGGGLVQAGGSLRLSCAASGFIFYYNAMGWYRQAPGKERELVAAIDSGGRTNYADSVKGRFTISRDNAKNTVYLQMNSLKPEDTAVYYCAADVITYATYGTRKFQRYGYWGQGTQVTVSS	low polyreactivity
QVQLVESGGGLVQAGGSLRLSCAASGITFDDNAMAWYRQAPGKERELVATISDGGRTYYADSVKGRFTISRDNAKNTVFLQMNILKPEDTGVYYCAAGYPYYHVYGYGYWGQGTLVTVSS	low polyreactivity
QVQLVESGGGLVQAGGSLRLTCAASGRIFAHYAMGWYRPAPGKERELVAAISSGGSTYYADSVKGRFTISRDNAKNTVYLLMNSLKPEDTAVYYCNKRPVRRKYDYWGQGTQVTVSS	low polyreactivity
KVQLVEKGGGLVQAGGSLRLSSAASGLNFTIYSMGWYRQEPGKERELVATISQGGGSTYADSVKGRFTISRDNAKNTVYLQMNSLKPEDTAVYYCNAKVVWYYLYDYWGQGTQVTVSS	low polyreactivity
QVQLVESGGGLVQAGGSLRLSCAASGRTFGVYAMGWYRQAPGKERELVATIRTTGSTNYADSVKGRFTISRDNAKNTVYLQMNSLKTEDTAVYYCGARQRQSKYYPYTTFTYDYWGQGTQVTVSS	high polyreactivity
QVQLVESGGGLVQAGGSLRLSCAASGFIFRYYTMGWYRQAPGKERELVATITSGGSTYYADSVKGRFTISRDNAKNTVYVQMNSLKPEDTAVYYCAKVRDVLWRFNYWGQGTQVTVSS	high polyreactivity
QVQLVESGGGLVQAGGSLRLSCAASGFIFSYYAMGWYRQAPGKERELVADITSGGSTNYADSVKGRFTISRDNAKNTVYLQMNSLKPEDTAVYYCAATGLPGYYAYDYWGQGTQVTVTS	low polyreactivity
